Source: article PMC5995894

Test system: spDnmt2 (Schizosaccharomyces pombe)
Test: fluorescence polarization
Conditions: binding buffer, salt, pH and temperature not given in the material (methods section text missing)

Substance	Kd	Kd (queuosine at position 34 (queuine enzymatically incorporated by human TGT))
G34 tRNAAsp (unmodified)	960 nM	–
Q34 tRNAAsp	–	670 nM
